The target of assay [1] is copper-induced oxidized low density lipoprotein (Cu-OxLDL) (UniProt P04114). In words: chemiluminescent ELISA, against Fab IK17 as reference.
The target of assay [2] is malondialdehyde low density lipoprotein (MDA-LDL) (UniProt P04114). Described as above.
Assay [3] concerns the target copper-induced oxidized low density lipoprotein (Cu-OxLDL) (UniProt P04114). In words: cell-based or functional assay.
Assay [4] has the same target. In words: competition: ^125I-Cu-OxLDL binding to mouse peritoneal macrophages at 4 C, IK17 as competitor.
Assay [5] addresses malondialdehyde low density lipoprotein (MDA-LDL) (UniProt P04114). In words: direct binding and competition assays with affinity purified Fab; method of the affinity value not stated.

This note sets out measurements from US7556927.

B1: scFv IK17 (scFv, part only; not given: linker and His tag, not shown: small tags and cut ends)
scFv, part: MAEVQLLESGGDLVQPGGSLRLSCIVSGSTFSNYAMSWVRQAPGKGLEWVSAISGTGRSTNYADSVKGRFTISRDNSKDTLYLEMNSLRAEDTATYYCTRTPRIDFWNIANRHFDYWGQGTRVTVSSASTKGPSVFPLAPSSKSTSGGTAALGCLVRDYFPEPVTVSWNSGALTSGVHTFPAVLQSSGLYSLSSVVTVPSSVLTQSPATLSLSPGERVTLSCRASQSVSSSLAWYQQKPGQAPRLLIYDASNRATGVPARFSGSGSGTDFTLTISGLEPEDFAVYYCQQRYNWPPKYTFGQGTKLEIRRTVAAPSVFIFPPSDEQLKSGTASVVCLLNNFYPREAKVQWKVG
With B1, the fold greater binding activity than parent Fab in assay [1] and in assay [2] was 50 to 500 fold in each case.

B2: IK17 human monoclonal IgG Fab (Fab, V domains shown)
VH: EVQLLESGGDLVQPGGSLRLSCIVSGSTFSNYAMSWVRQAPGKGLEWVSAISGTGRSTNYADSVKGRFTISRDNSKDTLYLEMNSLRAEDTATYYCTRTPRIDFWNIANRHFDYWGQGTRVTVSS
VL: VLTQSPATLSLSPGERVTLSCRASQSVSSSLAWYQQKPGQAPRLLIYDASNRATGVPARFSGSGSGTDFTLTISGLEPEDFAVYYCQQRYNWPPKYTFGQGTKLEIRR
In turn, B2 came in with a degradation of ^125I-Cu-OxLDL by macrophages (TCA-soluble ^125I in medium), % inhibition in assay [3] of 50 to 65%. Moreover, in assay [4], the % inhibition of binding of ^125I-Cu-OxLDL to macrophages fell in the range of 70 to 85%. This molecule also yielded a Kd in assay [5] of 37 nM.

By Kd is commonly meant the free concentration of one partner at which half of the binding sites on the other are occupied at equilibrium, for simple one-to-one binding.
